According to patent US8673313B2, “Cell penetrating peptides and its use fused to biomolecules with therapeutic action” (priority 2007, dated 2014):

What was measured:
J774 cells = assay: Fluorescence microscopy: internalization of the cargo protein E7 to the cell; format: cell-based; conditions: 1.66 μM protein, J774, 37° C., 30 min, 1 hour and 2 hours, FIG. 4
Experimental: Cells J774 grown on sterile glass cover slips of 22 mm overnight at 37° C. and 5% of CO2 with RPMI 1640, 10% inactivated calf fetal serum and 2 mM de glutamine. Then, different glass cover slips incubated with 1.66 μM fusion protein LALF-E7, 1.66 μM of protein E7 and PBS (as negative control) a 37° C. per 30 min, 1 hour and 2 hours. CasKi cells (human cells expressing HPV 16) grown as positive control in the same experimental conditions.
After incubation the cells were washed briefly with PBS and fix cells by 4% paraformaldehide per 20 min at room temperature. Wash in three changes of PBS. The permeabilization of the cells was with 0.5% Tritón X-100 for 15 min a room temperature. Wash in three changes of PBS. Then, the cells were incubating for 1 hour in 1% blocking SFB in PBS at room temperature. Wash in three changes of PBS. Cells were incubated with goat IgG anti E7/HPV 16 polyclonal antibody (Santa Cruz) diluted in PBS 1:50. Wash extensively with PBS. Incubate with anti-goat-fluorescein IgG polyclonal antibody (Santa Cruz) diluted in PBS 1:50 for 45 minutes in a dark chamber. Wash extensively with PBS. Mount cover slip with aqueous mounting medium. Examine using a fluorescence microscope with appropriate filters.

[1] = test system: TC-1 tumor cell line expressing the HPV16 E7 protein; assay: Treatment of established TC-1 tumors in mice (Example 8); format: in vivo, Mice C57BL/6; conditions: two immunizations every 14 days from day 10, volume at the 30 days, p<0.01 vs E7, LALF and PBS, FIG. 7
Text: In order to observe the regression of established tumors from the treatment with the recombinant protein fusion LALF-E7, the tumor cell line TC-1, was used. The TC-1 tumor cell line expressing the HPV16 E7 protein was derived from primary lung cells of C57Bl/6 mice by immortalization and transformation with HPV16 E6 and E7 genes and an activated human C-Ha-ras gene as described in Lin et al. (1996)) Treatment of established tumors with a novel vaccine that enhances major histocompatibility class II presentation of tumor antigen. Cancer Res. 56:21-26. For tumor inoculation, TC-1 cells, supplied by Dr. T.-C. Wu (The Johns Hopkins Medical Institutions, Baltimore, Md.), were grown to 60-70% confluence in RPMI1640 medium supplemented with 10% fetal calf serum (Hyclone, Logan, Utah), nonessential amino acids, glutamine, pyruvate, gentamycin, beta-mercaptoethanol and 0.4 mg/mL Geneticin at 37° C. Cells were harvested by trypsinization and resuspended in Hank's buffer solution at […].
Mice C57BL/6 was inoculated with 2×10^5 cells by subcutaneous injection in right leg in volumes of 0.2 mL. […] The tumor kinetic in the different groups was followed by the tumor volume which was determined using electronic calipers and taking the measures in two orthogonal dimensions. Tumor volumes (mm^3) were calculated from these measurements according to (length×width^2)/2. […]

[2] = test system: TC-1 tumor cell line expressing the HPV16 E7 protein; assay: Treatment of established TC-1 tumors in mice, fusion versus mix (Example 9); format: in vivo, Mice C57BL/6; conditions: two immunizations every 14 days from day 10, volume at the 30 days, p<0.01 vs LALF+E7, LALF, E7 and PBS, FIG. 8
Experimental: To study whether the antitumor effect of LALF-E7 was associated with the covalent bond of both molecules, we carried out experiments in which mice were treated for LALF and E7, which were mixed at the time prior to their use at equal molarity that would allow a comparison with mice that received the fusion protein LALF-E7.
In this realization, Mice C57BL/6 was inoculated with 2×10^5 cells by subcutaneous injection in right leg in volumes of 0.2 mL. To the 10 days, when all the animals had developed palpable tumors, the animals were assigned arbitrarily to five groups of treatments. Each group included 10 animals.
Two immunizations, every 14 days were made. The group 1 was immunized with the recombinant protein LALF-E7; group 2 with the mix LALF+E7: recombinant protein E7; group 3 with synthetic peptide LALF; group 4 with recombinant protein E7 and group 5 with PBS. The tumor kinetic in the different groups was followed as previously described in the example 8. The volume average of each group +/− the standard deviation at the 30 days is represented in the FIG. 8.

B1: LALF-E7: recombinant fusion of CPP LALF to E7 protein of HPV 16, cysteine per glycine in Rb site (SEQ ID N0. 9 y 10) (protein)
chain: MAEFHYRIKPTFRRLKWKYKGKFWKASHGDTPTLHEYMLDLQPETTDLYGYEQLNDSSEEEDEIDGPAGQAEPDRAHYNIVTFCCKCDSTLRLCVQSTHVDIRTLEDLLMGTLGIVCPICSQKPGSRAHHHHHH
modifications: Artificial Sequence Description Protein fusion CPP LALF-E7
With B1 the “internalization of E7 (fluorescent cells, anti-E7 antibody)” value (J774 cells) was “fluorescent cells”, the “effect on growth of established tumors (tumor volume)” value [1] was “full inhibition of growth of established tumors” and the “effect on volume of established tumors” value [2] was “effects in reducing the volume of tumors”.
